The numbers were not newly measured in article PMC9739296, which cites them from elsewhere.

The target of this data set is DR4 (Homo sapiens) (UniProt O00220).
UniProt O00220, sequence (O00220 24-468): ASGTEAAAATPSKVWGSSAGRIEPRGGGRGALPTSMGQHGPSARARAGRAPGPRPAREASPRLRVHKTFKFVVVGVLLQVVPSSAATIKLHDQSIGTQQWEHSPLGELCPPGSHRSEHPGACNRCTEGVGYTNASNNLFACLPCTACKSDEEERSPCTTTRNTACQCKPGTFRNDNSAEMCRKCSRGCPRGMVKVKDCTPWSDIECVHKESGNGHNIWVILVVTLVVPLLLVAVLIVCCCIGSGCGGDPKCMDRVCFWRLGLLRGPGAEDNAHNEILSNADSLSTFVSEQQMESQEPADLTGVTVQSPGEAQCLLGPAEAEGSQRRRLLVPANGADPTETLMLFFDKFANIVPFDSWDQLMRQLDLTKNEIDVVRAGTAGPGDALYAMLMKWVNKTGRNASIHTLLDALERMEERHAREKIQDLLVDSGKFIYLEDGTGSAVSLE

For TRAIL (from UniProt P50591), the Kd was 0.07 µM.

Usually Kd stands for the free concentration of one partner at which half of the binding sites on the other are occupied at equilibrium, for simple one-to-one binding.
